Measurements published in US8420311B2, “Method to block the infection by flaviviruses, molecules and uses” (Centro de Ingenieria Genetica y Biotecnologia, priority 2006, dated 2013).

Legend:
DV2 [1] = experiment: Mice protection assay using the DV-induced encephalitis model; format: in vivo, Balb/C mice; conditions: intra-cranial lethal dosis of DV2 (FIG. 21D)
Procedure: (§1) FIG. 21. Chromatographic profile of the purification of the A2MR using affinity chormatography with immobilized A2M (A) and SDS-PAGE analysis of fractions eluted using a 5-15% gradient gel (B). Effect of the pre-incubation of chromatography fractions with DV2 on the infection of Vero cells (C). The plaque reduction neutralization assay was performed as described in FIG. 20. (D) Mice protection assay using the DV-induced encephalitis model.
FIG. 22. Mice protection assay using the DV-induced encephalitis model. PepNR GAGs binding: peptide formed by a sequence fragment of binding to glycosaminoglycans and a non-related sequence fragment.
Groups of 12 adult Balb/C mice (20 g average body weight) were anesthesized, inoculated by intracranial injection with lethal dosis of DV2 and observed daily for 21 days. The mixtures of peptides with the virus were inoculated in the same way. The volume of the sample inoculated was 20 μL.
The mouse model of dengue encephalitis was used to investigate the potential of the peptide HDIII3CL to protect against DV2 infection. A group of 12 mice were inoculated with lethal dosis of DV2 in combination with 15 μg and 1.5 μg of HDIII3CL peptide. As negative control was used a peptide composed by fragment of 14 aminoacids of a sequence with known heparin binding activity followed by 16 aminoacids of a sequence non-related to the envelope protein of DV. […]

DV2 [2] = format: cell-based, dengue virus; conditions: protein 25 μg/mL pre-incubated with virus 1 hour at 25° C.
Procedure: as §1
To this aim, a viral preparation containing 100 infective viral particles was pre-incubated with the different fractions at a protein concentration of 25 μg/mL for 1 hour at 25° C. Next, the virus was added to Vero cell monolayers and infection was allowed to occur for 45 minutes at 37° C. Afterwards virus/protein mixtures were removed, the cells were washed with fresh medium and finally the cells were incubated for 5 days at 37° C. in high density medium.

serotype 3 of DV = experiment: Inhibition of the infection of Vero cells with DV by pre-incubation of the virus with A2M; format: cell-based, dengue virus; conditions: FIG. 20C
Procedure: (§2) FIG. 20. Inhibition of the infection of Vero cells with DV by pre-incubation with A2M. Viral preparations were incubated 1 h at 25° C. (A and C) or the indicated time (B) with the proteins i. e. activated A2M (A2Mact), non-activated A2M (A2M no act) and a non-related protein (NR). The mixtures of the proteins with the virus were added to monolayers of Vero cells and incubated for 1 h at 37° C. The cell monolayers were washed to eliminate non-bound virus. Next, medium MEM supplemented with non-essential amino acids and 1% FBS, 1% CMC was added and the cells were incubated for 5 days at 37° C. in a CO2 incubator. To visualize the viral plaques, Vero cells were stained using Naphtol Blue Black. All experimental points were performed on duplicates.

serotype 1 of DV = experiment: as above; format: cell-based, dengue virus; conditions: FIG. 20C
Procedure: as §2

[3] = target: T1, DIIIE2J (DIII from protein E of DV2) (Dengue virus type 2, UniProt P07564); experiment: Direct binding between DIIIE2J and A2M measured by Biacore; design: species or system DV2 strain Jamaica 1409; conditions: restated in example 10
T1 construct: made in house; host or cells: Escherichia coli BL21(DE3)
Procedure: FIG. 6. Direct binding between DIIIE2J and A2M, measured by Biacore. Response curves obtained during and after the injection of (B) Monoclonal antibodies against DV serotype 2 (3H5) and against all FV (4G2); (C) Polyclonal mouse antibody preparations obtained by immunization with DV1 and DV2, including pre-immune sera and (D) A2M dilutions, at concentrations from 0.3 μMol/L to 3 μMol/L. The run was performed on PBS pH 7.4 at 25° C. The different A2M dilutions were loaded at a flow of 5 μL/min for 20 min. The response is represented in resonance units (RU) corrected for unspecific binding using the response from the channel without immobilized protein (less than 5% of the specific signal).
A cm5 chip (Biacore, Sweden) was used for the covalent immobilization of the DIIIE2J and LRP1 proteins. The immobilization was carried out at 25° C., with a flow of 5 μL/min and using HBS (Biacore, Sweden) as running buffer. The surface of the chip was activated by loading 35 μL of 0.2 Mol/L […] (EDC) and 0.05 Mol/L N-hydroxysuccinimide (NHS). Afterwards the proteins, dissolved in 10 mM sodium acetate buffer pH 4.5, were loaded into the system. At the end of the immobilization, 35 μL of 1 M ethanolamine pH 8 were loaded into the system in order to block any remaining free activated groups. The channel to be used as a negative control in each case received only the activating injections with the EDC:NHS solution and the blocking with ethanolamine, employing the same flow and injection volume. The results were analyzed using the BIAevaluation ver. 4.1 software application package (Biacore, Sweden).
In order to estimate the strength of the interaction between DIIIE2J and human A2M, 1600 RU of DIIIE2J were covalently immobilized on a CM5 chip (channel 1, FIG. 6A) (Biacore, Sweden), following the procedure described in the Materials and Methods section. […]

DV = experiment: Inhibition of the infection of Vero cells with DV by pre-incubation of the virus with A2M; format: cell-based, dengue virus; conditions: stated to correspond with the affinity constant for DIIIE2J
Procedure: as §2
To obtain further evidences of the interaction of DV with A2M, the two variants of the protein i.e. activated and non-activated were used in assays of inhibition of infection of Vero cells. The viral preparation was incubated with solutions of activated A2M of higher concentrations than the physiological concentrations reached by this variant of the protein. Solutions of equimolar concentration of non-activated A2M and a non-related protein were used as negative controls. […]

Vero cells = experiment: Binding of fluoresceinated proteins to the surface of Vero cells (flow cytometry); format: cell-based, monkey; conditions: fluoresceinated proteins (FIG. 7A)
Procedure: FIG. 7. Inhibition of the binding of DIIIE2J to Vero cells by A2M and RAPR13. The pre-fixed cells were incubated with the fluoresceinated proteins, and the intensity of the fluorescence due to binding of the fluoresceinated ligands to the cells was measured by flow cytometry. Each experimental point represents data gathered from a minimum of 20 000 cells. (A) Binding of A2M and RAPR13 to the cells. The depicted values correspond to the average of the intensity of the fluorescence at each point of the assay minus the fluorescence obtained with untreated cells. (B) and (C) The cells were incubated with fluoresceinated DIIIE2J in the presence or absence of the non-fluoresceinated ligands, using the molar ratio indicated on each case. The % binding was calculated from the ratio of the average intensity of the fluorescence of the cells incubated with the mixture of fluoresceinated DIIIE2J plus the proteins, between that of the cells incubated only with fluoresceinated DIIIE2J.
In the case of cultured Vero cells, they were detached from the surface of the culture flask without using proteases, by incubation with PBS pH 7.4, 5 mM EDTA for 10 min. at 37° C., gently tapping the outside of the flask.
The cells, collected and washed as described above, were incubated in fixing solution (PBS pH 7.4, 2% paraformaldehyde, 0.01% NaN3, 1 mM CaCl2, 1 mM MgCl2 for 30 min at 4° C., and the fixing solution was then eliminated by centrifugation at 350×g for 5 min a 4° C. […] The intensity of the fluorescence was quantified by flow cytometry on a PAS III cytometer (Partec, Germany). The values for each experimental point were calculated from measurements on a minimum of 20 000 cells.
Given that this cell line is derived from monkey kidney cells and that the ligands for the A2MR receptor used in the assays are of human origin, a preliminary and necessary step was the corroboration of the binding of the RAPR13 and A2M MeNH2 proteins to Vero cells. With this aim, these proteins were fluoresceinated, and their binding to the surface of Vero cells was measured using flow cytometry. […]

T1 sequence (P07564 568-687, looked up, natural form): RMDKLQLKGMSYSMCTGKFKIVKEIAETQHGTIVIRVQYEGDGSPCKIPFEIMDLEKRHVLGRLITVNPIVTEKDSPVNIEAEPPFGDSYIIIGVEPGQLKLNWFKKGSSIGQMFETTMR

Molecule: Purified A2MR: α-chain of the A2MR receptor purified from human plasma by affinity chromatography on immobilized MeNH2_A2M
- protective effect in mice encephalitis model (DV2 [1]): significative protective effect
- neutralization of the infection of DV2 (DV2 [2]): potent neutralization

B1: activated A2M: purified human A2M activated by incubation with methylamine (protein)
chain: SVSGKPQYMVLVPSLLHTETTEKGCVLLSYLNETVTVSASLESVRGNRSLFTDLEAENDVLHCVAFAVPKSSSNEEVMFLTVQVKGPTQEFKKRTTVMVKNEDSLVFVQTDKSIYKPGQTVKFRVVSMDENFHPLNELIPLVYIQDPKGNRIAQWQSFQLEGGLKQFSFPLSSEPFQGSYKVVVQKKSGGRTEHPFTVEEFVLPKFEVQVTVPKIITILEEEMNVSVCGLYTYGKPVPGHVTVSICRKYSDASDCHGEDSQAFCEKFSGQLNSHGCFYQQVKTKVFQLKRKEYEMKLHTEAQIQEEGTVVELTGRQSSEITRTITKLSFVKVDSHFRQGIPFFGQVRLVDGKGVPIPNKVIFIRGNEANYYSNATTDEHGLVQFSINTTNVMGTSLTVRVNYKDRSPCYGYQWVSEEHEEAHHTAYLVFSPSKSFVHLEPMSHELPCGHTQTVQAHYILNGGTLLGLKKLSFYYLIMAKGGIVRTGTHGLLVKQEDMKGHFSISIPVKSDIAPVARLLIYAVLPTGDVIGDSAKYDVENCLANKVDLSFSPSQSLPASHAHLRVTAAPQSVCALRAVDQSVLLMKPDAELSASSVYNLLPEKDLTGFPGPLNDQDDEDCINRHNVYINGITYTPVSSTNEKDMYSFLEDMGLKAFTNSKIRKPKMCPQLQQYEMHGPEGLRVGFYESDVMGRGHARLVHVEEPHTETVRKYFPETWIWDLVVVNSAGVAEVGVTVPDTITEWKAGAFCLSEDAGLGISSTASLRAFQPFFVELTMPYSVIRGEAFTLKATVLNYLPKCIRVSVQLEASPAFLAVPVEKEQAPHCICANGRQTVSWAVTPKSLGNVNFTVSAEALESQELCGTEVPSVPEHGRKDTVIKPLLVEPEGLEKETTFNSLLCPSGGEVSEELSLKLPPNVVEESARASVSVLGDILGSAMQNTQNLLQMPYGCGEQNMVLFAPNIYVLDYLNETQQLTPEVKSKAIGYLNTGYQRQLNYKHYDGSYSTFGERYGRNQGNTWLTAFVLKTFAQARAYIFIDEAHITQALIWLSQRQKDNGCFRSSGSLLNNAIKGGVEDEVTLSAYITIALLEIPLTVTHPVVRNALFCLESAWKTAQEGDHGSHVYTKALLAYAFALAGNQDKRKEVLKSLNEEAVKKDNSVHWERPQKPKAPVGHFYEPQAPSAEVEMTSYVLLAYLTAQPAPTSEDLTSATNIVKWITKQQNAQGGFSSTQDTVVALHALSKYGAATFTRTGKAAQVTIQSSGTFSSKFQVDNNNRLLLQQVSLPELPGEYSMKVTGEGCVYLQTSLKYNILPEKEEFPFALGVQTLPQTCDEPKAHTSFQISLSVSYTGSRSASNMAIVDVKMVSGFIPLKPTVKMLERSNHVSRTEVSSNHVLIYLDKVSNQTLSLFFTVLQDVPVRDLKPAIVKVYDYYETDEFAIAEYNAPCSKDLGNA
- infection of Vero cells by serotype 3 of DV (serotype 3 of DV): inhibited infection
- infection of Vero cells by serotype 1 of DV (serotype 1 of DV): inhibited infection
- Kd [3]: 100 nM
- IC50 (DV): ~100 nM
- binding to the surface of Vero cells (Vero cells): concentration-dependant and saturable binding behavior
